Legend:
HLA-C*12:03 = experiment: IEDB peptide-MHC binding, purified MHC/direct/fluorescence; filed as Kd, often an IC50 or EC50 that approximates it; ≥ and ≤ were set here for values at or beyond the usual limits of such assays; details: source organism: Cryptosporidium parvum Iowa II
HLA-A*30:02 = experiment: IEDB peptide-MHC binding, purified MHC/competitive/fluorescence; filed as Kd, often an IC50 or EC50 that approximates it; ≥ and ≤ were set here for values at or beyond the usual limits of such assays; details: source organism: Cryptosporidium parvum Iowa II
HLA-B*08:01 = experiment: as above; details: source organism: Cryptosporidium parvum Iowa II
HLA-A*24:03 = experiment: as above; details: source organism: Cryptosporidium parvum Iowa II
HLA-B*44:02 = experiment: as above; details: source organism: Cryptosporidium parvum Iowa II
HLA-B*39:01 = experiment: as above; details: source organism: Cryptosporidium parvum Iowa II
HLA-B*14:02 = experiment: as above; details: source organism: Cryptosporidium parvum Iowa II
HLA-B*53:01 = experiment: as above; details: source organism: Cryptosporidium parvum Iowa II
HLA-B*27:03 = experiment: as above; details: source organism: Cryptosporidium parvum Iowa II
HLA-A*23:01 = experiment: as above; details: source organism: Cryptosporidium parvum Iowa II
HLA-A*11:01 [1] = experiment: as above; details: source organism: Cryptosporidium parvum Iowa II
HLA-B*27:05 [2] = experiment: as above; details: source organism: Cryptosporidium parvum Iowa II
HLA-A*68:02 = experiment: as above; details: source organism: Cryptosporidium parvum Iowa II
HLA-B*15:01 = experiment: as above
HLA-A*30:01 = experiment: as above; details: source organism: Cryptosporidium parvum Iowa II
HLA-A*26:01 = experiment: as above; details: source organism: Cryptosporidium parvum Iowa II
HLA-A*66:01 = experiment: as above; details: source organism: Cryptosporidium parvum Iowa II
HLA-B*07:02 = experiment: as above; details: source organism: Cryptosporidium parvum Iowa II
HLA-B*46:01 [3] = experiment: as above; details: source organism: Cryptosporidium parvum Iowa II
HLA-B*18:01 [4] = experiment: as above; details: source organism: Cryptosporidium parvum Iowa II
HLA-B*40:01 [5] = experiment: as above; details: source organism: Cryptosporidium parvum Iowa II
HLA-A*01:01 [6] = experiment: as above; details: source organism: Cryptosporidium parvum Iowa II
HLA-A*03:01 [7] = experiment: as above; details: source organism: Cryptosporidium parvum Iowa II
HLA-A*29:02 = experiment: as above; details: source organism: Cryptosporidium parvum Iowa II
HLA-B*51:01 [8] = experiment: as above; details: source organism: Cryptosporidium parvum Iowa II
HLA-A*31:01 = experiment: IEDB peptide-MHC binding, purified MHC/direct/fluorescence; filed as Kd, often an IC50 or EC50 that approximates it; ≥ and ≤ were set here for values at or beyond the usual limits of such assays; details: source organism: Mycobacterium tuberculosis
HLA-B*15:17 = experiment: as above; details: source organism: Mycobacterium tuberculosis
HLA-A*02:01 = experiment: as above; details: source organism: Mycobacterium tuberculosis
HLA-A*69:01 = experiment: as above; details: source organism: Mycobacterium tuberculosis
HLA-A*11:01 [9] = experiment: as above; details: source organism: Mycobacterium tuberculosis
HLA-B*27:05 [10] = experiment: as above; details: source organism: Mycobacterium tuberculosis
HLA-B*48:01 = experiment: as above; details: source organism: Mycobacterium tuberculosis
HLA-B*38:01 = experiment: as above; details: source organism: Mycobacterium tuberculosis str. Haarlem
HLA-B*58:01 = experiment: as above; details: source organism: Mycobacterium tuberculosis
HLA-B*46:01 [11] = experiment: as above; details: source organism: Mycobacterium tuberculosis
HLA-B*18:01 [12] = experiment: as above; details: source organism: Mycobacterium tuberculosis
HLA-B*40:01 [13] = experiment: as above; details: source organism: Mycobacterium tuberculosis
HLA-B*57:01 = experiment: as above; details: source organism: Mycobacterium tuberculosis
HLA-A*01:01 [14] = experiment: as above; details: source organism: Mycobacterium tuberculosis
HLA-A*03:01 [15] = experiment: as above; details: source organism: Mycobacterium tuberculosis
HLA-B*51:01 [16] = experiment: as above; details: source organism: Mycobacterium tuberculosis

## FTWQHNYYL
HLA-C*12:03
  Kd: 0.335 µM
HLA-A*30:02
  Kd: ≥ 5 µM
HLA-B*08:01
  Kd: ≥ 5 µM
HLA-A*24:03
  Kd: 0.041 µM
HLA-B*44:02
  Kd: ≥ 5 µM
HLA-B*39:01
  Kd: ≥ 20 µM
HLA-B*14:02
  Kd: ≥ 20 µM
HLA-B*53:01
  Kd: ≥ 5 µM
HLA-B*27:03
  Kd: ≥ 20 µM
HLA-A*23:01
  Kd: 0.149 µM
HLA-A*11:01 [1]
  Kd: ≥ 5 µM
HLA-B*27:05 [2]
  Kd: ≥ 5 µM
HLA-A*68:02
  Kd: ≤ 0.001 µM
HLA-B*15:01; source organism: Cryptosporidium parvum Iowa II
  Kd: ≥ 20 µM
HLA-A*30:01
  Kd: ≥ 5 µM
HLA-A*26:01
  Kd: ≥ 20 µM
HLA-A*66:01
  Kd: ≥ 5 µM
HLA-B*07:02
  Kd: ≥ 5 µM
HLA-B*46:01 [3]
  Kd: ≥ 20 µM
HLA-B*18:01 [4]
  Kd: ≥ 20 µM
HLA-B*40:01 [5]
  Kd: ≥ 5 µM
HLA-A*01:01 [6]
  Kd: 0.463 µM
HLA-A*03:01 [7]
  Kd: ≥ 20 µM
HLA-A*29:02
  Kd: 0.0509 µM
HLA-B*51:01 [8]
  Kd: ≥ 20 µM

## VPRENATAF
HLA-A*31:01
  Kd: ≥ 20 µM
HLA-B*15:17
  Kd: ≥ 20 µM
HLA-A*02:01
  Kd: ≥ 20 µM
HLA-A*69:01
  Kd: ≥ 20 µM
HLA-A*11:01 [9]
  Kd: ≥ 20 µM
HLA-B*27:05 [10]
  Kd: ≥ 20 µM
HLA-B*48:01
  Kd: ≥ 20 µM
HLA-B*38:01
  Kd: ≥ 20 µM
HLA-B*58:01
  Kd: ≥ 20 µM
HLA-B*46:01 [11]
  Kd: 15.9 µM
HLA-B*18:01 [12]
  Kd: 0.598 µM
HLA-B*40:01 [13]
  Kd: ≥ 20 µM
HLA-B*57:01
  Kd: ≥ 20 µM
HLA-A*01:01 [14]
  Kd: ≥ 20 µM
HLA-A*03:01 [15]
  Kd: ≥ 20 µM
HLA-B*51:01 [16]
  Kd: ≥ 20 µM
HLA-B*15:01; source organism: Mycobacterium tuberculosis variant bovis BCG str. Pasteur 1173P2
  Kd: ≥ 20 µM

Source: the Immune Epitope Database (IEDB)
